Biological target: Rac1 (Homo sapiens, UniProt P63000)
Test: GST pull-down

B1: PAK1 RBD (protein)
chain: KKEKERPEISLPSDFEHTIHVGFDAVTGEFTGMPEQWARLLQTSNITKSEQKKNPQAVLDVLEFYNSKKTSNSQKYMSFTDKSA
  Kd: 243 nM

— paper PMC5470993 (2017)
